Assay results from publication PMC6265731.

Columns and labels:
Experiment in all cases: affinity purification with mass spectrometry
[1] = target: WT PLRV (assembled virions and/or soluble structural proteins CP and RTP, as captured by the α-PLRV antibody) (Potato leafroll virus)
[2] = target: non-incorporated (soluble) form of the PLRV readthrough protein expressed by the ΔCP mutant (Potato leafroll virus)
[3] = target: ΔRTC PLRV (virions and soluble structural proteins of the mutant whose RTD lacks the last 218 C-terminal residues) (Potato leafroll virus)

Question: For “Potato leafroll virus P3a protein (from UniProt P0DTK2 1-45) (natural protein)”, which fold decrease of P3a (normalised to CP) in ΔP17 APs against WT APs [1] is on record?
Answer: 3.4 fold

B1: Potato leafroll virus P17 movement protein (natural protein)
chain: MSMVVYNNQECEEGNPFAGALTEFSQWLWSRPLGNPGAEDAEEEAIAAQEELEFPEDEAQARHSCLQRTTSWATPKEVSPSGRVYQTVRHSRMEYSRPTMSIRSQASYFSSSARPLPPPPVPSLMSWTPIAKYHPSSPTSTSSKLRRAAPKLIKRG
Question: For B1, which fold increase of P17 (normalised to CP) in ΔCP APs against WT APs [2] is on record?
Answer: 1.8 fold

B2: Potato leafroll virus P1 polyprotein (natural protein)
chain: KEAGFLHPAFNFRGTSTMSASSGDYSAAPTPLYKSWALPSSLNLTTQPPPPLTDRSYYELVQALTSKMRLDCQTVGDMTWRHLSEMLFASWNSVKEVSLKAASVTLWAIINIWFGLYWTLARLITLFLWTFSIEALCLILLGCITSLIYKGALSLSEHLPVFLFMSPLKIIWRAAFSKRNYKNERAVEGYKGFSVPQKPPKSAVIELQHENGSHLGYANCIRLYSGENALVTAEHCLEGAFATSLKTGNRIPMSTFFPIFKSARNDISILVGPPNWEGLLSVKGAHFITADKIGKGPASFYTLEKGEWMCHSATIDGAHHQFVSVLCNTGPGYSGTGFWSSKNLLGVLKGFPLEEECNYNVMSVIPSIPGITSPNYVFESTAVKGRVFSDEAVKELEREASEAVKKLARFKSLTDKNWADDYDSDEDYGLEREAATNAPAEKTAQTNSAEKTAPSTSAEKTALTNKPLNGQAAPSAKTNGNSDIPDAATSAPPMDKMVEQIITAMVGRINLSEIEEKIVSRVSQKALQKPKQKKRGRRGGKNKQNSLPPTSTQSTSGAPKKEAAPQASGSAGTSRATTTPAPEAKPSGGKNSAKFTPSWRIKQQDSAGQKPDLKLNSKA
Question: For B2, which fold increase of P1 (normalised to CP) in ΔRTC APs against WT APs [3] is on record?
Answer: 1.8 fold
